Experimental data as given in PMC6240786.

Key:
[1] = target: Streptomyces clavuligerus cucumene synthase, wild-type (Streptomyces clavuligerus); experiment: crystal structure
[2] = target: T181N cucumene synthase (Streptomyces clavuligerus); experiment: crystal structure

stoichiometry N [1] | stoichiometry N [2] | Substance
2 | – | Streptomyces clavuligerus cucumene synthase, wild-type (enzyme)
– | 2 | T181N cucumene synthase (enzyme)
